Assay [1] deals with T1, XQ2 (macrocyclic (cyclic) peptide). The assay is described as follows: MST; 2 M (NH4)2SO4.
In assay [2] the target is T1, XQ2. The assay is described as follows: SPR. A general note: SPR reads the build-up and loss of mass on a sensor chip optically.

B1: fluorescent labeled hcGAS (enzyme)
chain: MQPWHGKAMQRASEAGATAPKASARNARGAPMDPTESPAAPEAALPKAGKFGPARKSGSRQKKSAPDTQERPPVRATGARAKKAPQRAQDTQPSDATSAPGAEGLEPPAAREPALSRAGSCRQRGARCSTKPRPPPGPWDVPSPGLPVSAPILVRRDAAPGASKLRAVLEKLKLSRDDISTAAGMVKGVVDHLLLRLKCDSAFRGVGLLNTGSYYEHVKISAPNEFDVMFKLEVPRIQLEEYSNTRAYYFVKFKRNPKENPLSQFLEGEILSASKMLSKFRKIIKEEINDIKDTDVIMKRKRGGSPAVTLLISEKISVDITLALESKSSWPASTQEGLRIQNWLSAKVRKQLRLKPFYLVPKHAKEGNGFQEETWRLSFSHIEKEILNNHGKSKTCCENKEEKCCRKDCLKLMKYLLEQLKERFKDKKHLDKFSSYHVKTAFFHVCTQNPQDSQWDRKDLGLCFDNCVTYFLQCLRTEKLENYFIPEFNLFSSNLIDKRSKEFLTKQIEYERNNEFPVFDEF
modifications: fluorescent label (dye and site not stated)
As a reminder, the Kd is a measure of binding affinity in units of concentration. With B1, the Kd in the assay with XQ2 [1] is 1800 nM. That is a single-digit micromolar value.

B2: N-terminally truncated human cGAS (hcGAS-ΔN, residues 147–522) (domain or fragment)
chain: PVSAPILVRRDAAPGASKLRAVLEKLKLSRDDISTAAGMVKGVVDHLLLRLKCDSAFRGVGLLNTGSYYEHVKISAPNEFDVMFKLEVPRIQLEEYSNTRAYYFVKFKRNPKENPLSQFLEGEILSASKMLSKFRKIIKEEINDIKDTDVIMKRKRGGSPAVTLLISEKISVDITLALESKSSWPASTQEGLRIQNWLSAKVRKQLRLKPFYLVPKHAKEGNGFQEETWRLSFSHIEKEILNNHGKSKTCCENKEEKCCRKDCLKLMKYLLEQLKERFKDKKHLDKFSSYHVKTAFFHVCTQNPQDSQWDRKDLGLCFDNCVTYFLQCLRTEKLENYFIPEFNLFSSNLIDKRSKEFLTKQIEYERNNEFPVFDEF
With B2, in the assay with XQ2 [2], binding was characterised by a dissociation constant (Kd) of 86.5 µM.

The record behind these values is PMC10545747 (2023).
